In publication PMC13043812:

B1: unnamed (parent)
chain 1: MVTHELLVKAAGAVLTGLVGVSAYETLRKALGTAPIRRASVTVMEWGLRGTRRAEAAAESARLTVADVVAEARGRIGEEAPLPAGARVDE
chain 2: MTTVVDAEVQLTVVSDAAGRMRVQATGFQFDAGRAVAIEDTVGKVAGVQAVHAYPRTASIVIWYSRAICDTAAILSAIIDAETVPA

Variants of: B1
Conditions: with partner chain of the complex shown; in M. smegmatis; parent: 100; read off a plot

Row | Variant | response [% GFP+ cells]
1 | chain 1 E71A | 8.5
2 | chain 1 E59A E71A | 0.015
3 | chain 1 E59A | 0.31
